Reference: the Human Domainome abundance scans (Beltran et al. 2025)
± gives the uncertainty stated by the source.

B1: CD2-associated protein, residues 271 to 331; numbered along this chain, Q9Y5K6 (parent)
chain: KEYCRTLFAYEGTNEDELTFKEGEIIHLISKETGEAGWWRGELNGKEGVFPDNFAVQINEL

Variants of: B1
Assay: abundance fitness (aPCA) (normalised: wild type 0, dead -1); higher = more abundant; growth selection in yeast, the domain comes from the species named
Conditions: Homo sapiens
With KEYCRTLFAYEGTNEDELTFKEGEIIHLISKETGEAGWWRGELNGKDGVFPDNFAVQINEL [E47D] the abundance fitness was -0.347 ± 0.081.
Work on KEYCRTLFAYEGTNEDELTFKEGEIIHLISKETGEAGWWRGELNGKLGVFPDNFAVQINEL [E47L] yielded an abundance fitness of -0.241 ± 0.074.
KEYCRTLFAYEGTNEDELTFKEGEIIHLISKETGEAGWWRGELNGKGGVFPDNFAVQINEL [E47G] showed an abundance fitness of -0.479 ± 0.081.
KEYCRTLFAYEGTNEDELTFKEGEIIHLISKETGEAGWWRGELNGKHGVFPDNFAVQINEL [E47H] showed an abundance fitness of -0.154 ± 0.084.
In the case of KEYCRTLFAYEGTNEDELTFKEGEIIHLISKETGEAGWWRGELNGKIGVFPDNFAVQINEL [E47I], the abundance fitness is reported as 0.053 ± 0.061.
In the case of KEYCRTLFAYEGTNEDELTFKEGEIIHLISKETGEAGWWRGELNGKFGVFPDNFAVQINEL [E47F], the abundance fitness is reported as -0.198 ± 0.073.
KEYCRTLFAYEGTNEDELTFKEGEIIHLISKETGEAGWWRGELNGKAGVFPDNFAVQINEL [E47A] gave an abundance fitness of -0.248 ± 0.067.
Work on KEYCRTLFAYEGTNEDELTFKEGEIIHLISKETGEAGWWRGELNGKRGVFPDNFAVQINEL [E47R] yielded an abundance fitness of -0.02 ± 0.076.
Variant KEYCRTLFAYEGTNEDELTFKEGEIIHLISKETGEAGWWRGELNGKNGVFPDNFAVQINEL [E47N] has an abundance fitness of -0.205 ± 0.062.
In the case of KEYCRTLFAYEGTNEDELTFKEGEIIHLISKETGEAGWWRGELNGKCGVFPDNFAVQINEL [E47C], the abundance fitness is reported as -0.104 ± 0.068.
Work on KEYCRTLFAYEGTNEDELTFKEGEIIHLISKETGEAGWWRGELNGKMGVFPDNFAVQINEL [E47M] yielded an abundance fitness of -0.301 ± 0.21.
Variant KEYCRTLFAYEGTNEDELTFKEGEIIHLISKETGEAGWWRGELNGKSGVFPDNFAVQINEL [E47S] has an abundance fitness of -0.052 ± 0.048.
Variant KEYCRTLFAYEGTNEDELTFKEGEIIHLISKETGEAGWWRGELNGKPGVFPDNFAVQINEL [E47P] has an abundance fitness of -0.752 ± 0.14.
Work on KEYCRTLFAYEGTNEDELTFKEGEIIHLISKETGEAGWWRGELNGKQGVFPDNFAVQINEL [E47Q] yielded an abundance fitness of 0.014 ± 0.13.
Variant KEYCRTLFAYEGTNEDELTFKEGEIIHLISKETGEAGWWRGEQNGKEGVFPDNFAVQINEL [L43Q] has an abundance fitness of -0.682 ± 0.13.
In the case of KEYCRTLFAYEGTNEDELTFKEGEIIHLISKETGEAGWWRGEWNGKEGVFPDNFAVQINEL [L43W], the abundance fitness is reported as -0.605 ± 0.14.
Variant KEYCRTLFAYEGTNEDELTFKEGEIIHLISKETGEAGWWRGEPNGKEGVFPDNFAVQINEL [L43P] has an abundance fitness of -0.701 ± 0.2.
In the case of KEYCRTLFAYEGTNEDELTFKEGEIIHLISKETGEAGWWRGENNGKEGVFPDNFAVQINEL [L43N], the abundance fitness is reported as -0.468 ± 0.17.
KEYCRTLFAYEGTNEDELTFKEGEIIHLISKETGEAGWWRGEKNGKEGVFPDNFAVQINEL [L43K] gave an abundance fitness of -0.156 ± 0.073.
In the case of KEYCRTLFAYEGTNEDELTFKEGEIIHLISKETGEAGWWRGEANGKEGVFPDNFAVQINEL [L43A], the abundance fitness is reported as -0.285 ± 0.062.
For KEYCRTLFAYEGTNEDELTFKEGEIIHLISKETGEAGWWRGEYNGKEGVFPDNFAVQINEL [L43Y], the abundance fitness was -0.294 ± 0.13.
With KEYCRTLFAYEGTNEDELTFKEGEIIHLISKETGEAGWWRGERNGKEGVFPDNFAVQINEL [L43R] the abundance fitness was -0.214 ± 0.072.
With KEYCRTLFAYEGTNEDELTFKEGEIIHLISKETGEAGWWRGEMNGKEGVFPDNFAVQINEL [L43M] the abundance fitness was -0.219 ± 0.065.
Variant KEYCRTLFAYEGTNEDELTFKEGEIIHLISKETGEAGWWRGEDNGKEGVFPDNFAVQINEL [L43D] has an abundance fitness of -0.458 ± 0.18.
Variant KEYCRTLFAYEGTNEDELTFKEGEIIHLISKETGEAGWWRGEINGKEGVFPDNFAVQINEL [L43I] has an abundance fitness of -0.004 ± 0.14.
For KEYCRTLFAYEGTNEDELTFKEGEIIHLISKETGEAGWWRGECNGKEGVFPDNFAVQINEL [L43C], the abundance fitness was -0.26 ± 0.16.
With KEYCRTLFAYEGTNEDELTFKEGEIIHLISKETGEAGWWRGEHNGKEGVFPDNFAVQINEL [L43H] the abundance fitness was -0.522 ± 0.25.
In the case of KEYCRTLFAYEGTNEDELTFKEGEIIHLISKETGEAGWWRGETNGKEGVFPDNFAVQINEL [L43T], the abundance fitness is reported as -0.505 ± 0.096.
For KEYCRTLFAYEGTNEDELTFKEGEIIHLISKETGEAGWWRGESNGKEGVFPDNFAVQINEL [L43S], the abundance fitness was -0.411 ± 0.071.
Variant KEYCRTLFAYEGTNEDELTFKEGEIIHLISKETGEAGWWRGEENGKEGVFPDNFAVQINEL [L43E] has an abundance fitness of -0.703 ± 0.14.
In the case of KEYCRTLFAYEGTNEDELTFKEGEIIHLISKETGEAGWWRGEFNGKEGVFPDNFAVQINEL [L43F], the abundance fitness is reported as -0.475 ± 0.091.
KEYCRTLFAYEGTNEDELTFKEGEIIHLISKETGEAGWWRGEVNGKEGVFPDNFAVQINEL [L43V] gave an abundance fitness of -0.308 ± 0.078.
With KEYCRTLFAYEGTNEDELTFKEGEIIHLISKETGEAGWWRGEGNGKEGVFPDNFAVQINEL [L43G] the abundance fitness was -0.766 ± 0.13.
With KEYCRTLFAYEGTNEDELTFKEGEIIHLISKETGEAGWWRGELNVKEGVFPDNFAVQINEL [G45V] the abundance fitness was -0.845 ± 0.083.
Work on KEYCRTLFAYEGTNEDELTFKEGEIIHLISKETGEAGWWRGELNEKEGVFPDNFAVQINEL [G45E] yielded an abundance fitness of -0.448 ± 0.086.
Variant KEYCRTLFAYEGTNEDELTFKEGEIIHLISKETGEAGWWRGELNQKEGVFPDNFAVQINEL [G45Q] has an abundance fitness of -0.612 ± 0.1.
KEYCRTLFAYEGTNEDELTFKEGEIIHLISKETGEAGWWRGELNSKEGVFPDNFAVQINEL [G45S] gave an abundance fitness of -0.376 ± 0.064.
KEYCRTLFAYEGTNEDELTFKEGEIIHLISKETGEAGWWRGELNAKEGVFPDNFAVQINEL [G45A] gave an abundance fitness of -0.437 ± 0.071.
KEYCRTLFAYEGTNEDELTFKEGEIIHLISKETGEAGWWRGELNRKEGVFPDNFAVQINEL [G45R] gave an abundance fitness of -0.617 ± 0.087.
KEYCRTLFAYEGTNEDELTFKEGEIIHLISKETGEAGWWRGELNIKEGVFPDNFAVQINEL [G45I] showed an abundance fitness of -0.453 ± 0.2.
Work on KEYCRTLFAYEGTNEDELTFKEGEIIHLISKETGEAGWWRGELNFKEGVFPDNFAVQINEL [G45F] yielded an abundance fitness of -0.408 ± 0.18.
With KEYCRTLFAYEGTNEDELTFKEGEIIHLISKETGEAGWWRGELNKKEGVFPDNFAVQINEL [G45K] the abundance fitness was -0.438 ± 0.088.
KEYCRTLFAYEGTNEDELTFKEGEIIHLISKETGEAGWWRGELNLKEGVFPDNFAVQINEL [G45L] showed an abundance fitness of -0.858 ± 0.079.
